From the Human Domainome abundance scans (Beltran et al. 2025) come the findings set out here.

± gives the uncertainty stated by the source.

The labels stand for the following.
B1: Cyclin-F, residues 28 to 80; numbered along this chain, P41002 (parent)
chain: RNLTILSLPEDVLFHILKWLSVEDILAVRAVHSQLKDLVDNHASVWACASFQE

Variants of B1 are the subject of this data set. Briefly: abundance fitness (aPCA) (normalised: wild type 0, dead -1); higher = more abundant; growth selection in yeast, the domain comes from the species named. The note with it: Homo sapiens.
Consider L8V, for which the abundance fitness was -0.915 ± 0.26.

As for L8M, the abundance fitness was -0.407 ± 0.4.

Take L8Q: the abundance fitness is -0.925 ± 0.39.

In the case of L8G, the abundance fitness is -0.939 ± 0.23.

For L8N, the abundance fitness is -0.755 ± 0.29.

L8A: the abundance fitness is -0.509 ± 0.31.

With L13V, the abundance fitness was -0.141 ± 0.14.

As to L13D, the abundance fitness is -0.644 ± 0.44.

On to L13G, for which the abundance fitness was -0.692 ± 0.14.

Take L13E: the abundance fitness is -0.81 ± 0.32.

For L13W, the abundance fitness was -0.204 ± 0.21.

For the variant L13K, the abundance fitness was -0.431 ± 0.23.

For the variant L13S, the abundance fitness was -0.67 ± 0.2.

Consider V22D, for which the abundance fitness was -0.405 ± 0.12.

Take V22T: the abundance fitness is -0.168 ± 0.11.

V22H: the abundance fitness was -0.122 ± 0.14.

Take V22G: the abundance fitness was -0.553 ± 0.071.

Take R29C: the abundance fitness was -0.635 ± 0.19.

For R29Y, the abundance fitness was -0.713 ± 0.21.

As to R29M, the abundance fitness is -0.541 ± 0.14.

On to R29L, for which the abundance fitness is -0.833 ± 0.11.

In the case of R29W, the abundance fitness is -0.814 ± 0.15.

Turning to R29G, the abundance fitness is -0.795 ± 0.12.

As to R29N, the abundance fitness was -0.955 ± 0.19.

For the variant T4L, the abundance fitness was -0.836 ± 0.13.

With T4D, the abundance fitness is -0.076 ± 0.11.

For T4S, the abundance fitness was 0.087 ± 0.093.

On to T4M, for which the abundance fitness was -0.695 ± 0.17.

With L20Q, the abundance fitness is -0.893 ± 0.26.

For the variant L20E, the abundance fitness is -0.982 ± 0.23.

In the case of L20Y, the abundance fitness was -0.75 ± 0.29.

For L20A, the abundance fitness was -0.667 ± 0.16.

Take L20K: the abundance fitness is -0.838 ± 0.41.

Take L20F: the abundance fitness is -1.01 ± 0.24.

Consider L20D, for which the abundance fitness is -0.675 ± 0.24.

On to L20C, for which the abundance fitness was -0.42 ± 0.16.

Take D40H: the abundance fitness is -0.552 ± 0.19.

D40G: the abundance fitness was -0.77 ± 0.1.

For the variant D40W, the abundance fitness is -1.03 ± 0.2.

As to D40Y, the abundance fitness was -0.862 ± 0.22.

Regarding D40M, the abundance fitness is -0.884 ± 0.28.

Regarding D40T, the abundance fitness was -0.444 ± 0.15.

Consider D40K, for which the abundance fitness was -0.805 ± 0.27.

In the case of D40Q, the abundance fitness is -0.49 ± 0.2.

As to D40L, the abundance fitness was -0.919 ± 0.12.

As to E10W, the abundance fitness was -0.737 ± 0.12.

E10L: the abundance fitness was -0.646 ± 0.098.

In the case of E10V, the abundance fitness was -0.524 ± 0.11.

As for E10K, the abundance fitness came to 0.24 ± 0.14.

As to W46H, the abundance fitness was -0.38 ± 0.17.

As for W46S, the abundance fitness was -0.314 ± 0.088.

With W46T, the abundance fitness is -0.3 ± 0.1.

For W46C, the abundance fitness was -0.4 ± 0.16.

On to W46G, for which the abundance fitness is -0.065 ± 0.084.

Consider W46I, for which the abundance fitness was -0.294 ± 0.13.

As to W46P, the abundance fitness is -0.386 ± 0.13.

In the case of W46V, the abundance fitness is -0.415 ± 0.1.

A47T: the abundance fitness is -0.43 ± 0.15.

In the case of A47S, the abundance fitness is -0.114 ± 0.13.

Consider A47W, for which the abundance fitness was -0.374 ± 0.12.

With A47G, the abundance fitness was 0.193 ± 0.08.

For the variant A47D, the abundance fitness was -0.062 ± 0.15.

In the case of A47V, the abundance fitness is -0.513 ± 0.12.

Consider A47M, for which the abundance fitness is -0.095 ± 0.13.

Turning to A47R, the abundance fitness is -0.14 ± 0.094.

On to A47H, for which the abundance fitness is -0.29 ± 0.26.

As for A47K, the abundance fitness is -0.181 ± 0.16.

Regarding A47F, the abundance fitness was determined as 0.386 ± 0.18.

Take A47L: the abundance fitness is -0.235 ± 0.096.

E53T: the abundance fitness is -0.349 ± 0.25.

Turning to E53F, the abundance fitness is -0.582 ± 0.42.

Consider E53H, for which the abundance fitness was -0.878 ± 0.36.

For the variant E53A, the abundance fitness is -0.151 ± 0.17.

Regarding E53P, the abundance fitness is -0.375 ± 0.34.

As to E53V, the abundance fitness is -0.538 ± 0.19.

Take L17F: the abundance fitness was 0.056 ± 0.12.

As for L17E, the abundance fitness was -1.06 ± 0.23.

Turning to L17V, the abundance fitness is -0.169 ± 0.093.

With Q52V, the abundance fitness is -0.123 ± 0.1.

As for Q52Y, the abundance fitness is -0.382 ± 0.24.

On to Q52F, for which the abundance fitness was -0.241 ± 0.22.

In the case of Q52D, the abundance fitness was -0.296 ± 0.27.

Regarding Q52L, the abundance fitness is -0.07 ± 0.097.

In the case of Q52C, the abundance fitness is -0.213 ± 0.2.

For the variant Q52W, the abundance fitness is -0.19 ± 0.18.

As to I5V, the abundance fitness is -0.243 ± 0.087.

In the case of I5H, the abundance fitness was -0.771 ± 0.18.

For the variant I5P, the abundance fitness was -0.559 ± 0.15.

Regarding I5E, the abundance fitness is -0.679 ± 0.21.

For I5K, the abundance fitness is -0.758 ± 0.19.

For the variant S44Y, the abundance fitness is -0.428 ± 0.15.

Take S44F: the abundance fitness is -0.278 ± 0.12.

As for S44D, the abundance fitness turned out to be 0.212 ± 0.13.

In the case of S44M, the abundance fitness was -0.223 ± 0.12.

As to S44W, the abundance fitness is -0.485 ± 0.14.

As for H15I, the abundance fitness was -0.21 ± 0.19.

For H15C, the abundance fitness is -0.091 ± 0.17.

Take H15N: the abundance fitness is 0.226 ± 0.14.

Consider H15P, for which the abundance fitness was -0.731 ± 0.17.

With H15D, the abundance fitness was -0.408 ± 0.18.

Consider K36P, for which the abundance fitness is -0.573 ± 0.16.

Consider K36I, for which the abundance fitness was -0.986 ± 0.23.

For K36Q, the abundance fitness is -0.609 ± 0.23.

Consider K36E, for which the abundance fitness was -0.771 ± 0.21.

Regarding K36W, the abundance fitness was -0.626 ± 0.22.

Consider K36C, for which the abundance fitness was -0.915 ± 0.18.

As to D37G, the abundance fitness is -0.044 ± 0.085.

With D37W, the abundance fitness was -0.42 ± 0.13.

Consider D37N, for which the abundance fitness was -0.017 ± 0.13.

With D37F, the abundance fitness is -0.222 ± 0.16.

For the variant D37P, the abundance fitness was -1.02 ± 0.2.

Turning to D37M, the abundance fitness is 0.158 ± 0.14.

As to Q34D, the abundance fitness is -0.446 ± 0.087.

Consider Q34H, for which the abundance fitness was -0.121 ± 0.1.

As for Q34Y, the abundance fitness was -0.374 ± 0.12.

In the case of Q34P, the abundance fitness is -0.807 ± 0.11.

In the case of Q34C, the abundance fitness is -0.248 ± 0.086.

Take Q34E: the abundance fitness was -0.455 ± 0.078.

Take Q34F: the abundance fitness is -0.4 ± 0.1.

Consider A49K, for which the abundance fitness is 0.17 ± 0.13.

On to A49S, for which the abundance fitness was determined as 0.092 ± 0.078.

As for A49M, the abundance fitness is -0.51 ± 0.18.

On to A49I, for which the abundance fitness was -0.409 ± 0.23.

For A49D, the abundance fitness was found to be 0.248 ± 0.12.

For A49V, the abundance fitness was -0.609 ± 0.11.

As to A49Q, the abundance fitness was 0.088 ± 0.15.

As for L38M, the abundance fitness is -0.008 ± 0.13.

Regarding L38W, the abundance fitness is -0.214 ± 0.12.

With L38R, the abundance fitness was -0.633 ± 0.11.

L38T: the abundance fitness is -0.133 ± 0.15.

As to L38C, the abundance fitness was 0.17 ± 0.099.

As to L38E, the abundance fitness is -0.872 ± 0.24.

Take L6W: the abundance fitness was -0.678 ± 0.12.

In the case of S7K, the abundance fitness is -0.109 ± 0.13.

S7A: the abundance fitness was -0.427 ± 0.1.

With S7T, the abundance fitness was -0.381 ± 0.13.

On to S7W, for which the abundance fitness was -0.693 ± 0.12.

As for S7G, the abundance fitness is -0.31 ± 0.076.

Take S7N: the abundance fitness was -0.118 ± 0.13.

In the case of S7Y, the abundance fitness was -0.869 ± 0.22.

With D11N, the abundance fitness amounted to 0.046 ± 0.091.

Consider D11A, for which the abundance fitness came to 0.028 ± 0.1.

As for D11K, the abundance fitness was 0.269 ± 0.14.

Regarding D11C, the abundance fitness is -0.18 ± 0.12.

D11Y: the abundance fitness is -0.556 ± 0.22.

Consider R1L, for which the abundance fitness was -0.305 ± 0.44.

Consider R1W, for which the abundance fitness is -0.914 ± 0.28.

Take R1C: the abundance fitness was -0.246 ± 0.16.

Consider R1G, for which the abundance fitness is -0.193 ± 0.12.

L26T: the abundance fitness was -0.396 ± 0.14.

With L26Q, the abundance fitness was -0.147 ± 0.11.

For the variant L26M, the abundance fitness is -0.183 ± 0.14.

For the variant L26C, the abundance fitness is -0.256 ± 0.13.

For L26V, the abundance fitness is -0.452 ± 0.1.

Turning to L26I, the abundance fitness is -0.023 ± 0.29.

Regarding A43L, the abundance fitness was -0.605 ± 0.33.

In the case of A43I, the abundance fitness was -0.577 ± 0.36.

Consider A43P, for which the abundance fitness was -0.039 ± 0.37.

Regarding A43E, the abundance fitness was -0.343 ± 0.36.

As to A43T, the abundance fitness is -0.416 ± 0.39.

V12A: the abundance fitness was -0.816 ± 0.16.

As for V12H, the abundance fitness is -0.732 ± 0.28.

As to V12P, the abundance fitness is -0.733 ± 0.13.

Consider V12W, for which the abundance fitness is -0.851 ± 0.16.

As to V12L, the abundance fitness is -0.281 ± 0.096.

V12M: the abundance fitness is -0.924 ± 0.17.

Turning to V12K, the abundance fitness is -1.07 ± 0.29.
